Data: the supplement of paper PMC7877785
± gives the uncertainty stated by the source.

Assay: self-splicing fitness, log relative to wild type (ln ratio); higher = more splicing; Tetrahymena group I intron in knt gene, E. coli kanamycin selection, DiMSum; sequences stand for … in CUCUCU…GGAGGGAAAAGUUAUCAGGCAUGCACCUGGUAGCUAGUCUUUAAACCAAUAGAUUGCAUCGGUUUAAAAGGCAAGACCGUCAAAUUGCGGGAAAGGGGUCAACAGCCGUUCAGUACCAAGUCUCAGGGGAAACUUUGAGAUGGCCUUGCAAAGGGUAUGGUAAUAAGCUGACGGACAUGGUCCUAACCACGCAGCCAAGUCCUAAGUCAACAGAUCUUCUGUUGAUAUGGAUGCAGUUCACAGACUAAAUGUCGGUCGGGGAAGAUGUAUUCUUCUCAUAAGAUAUAGUCGGACCUCUCCUUAAUGGGAGCUAGCGGAUGAAGUGAUGCAACACUGGAGCCGCUGGGAACUAAUUUGUAUGCGAAAGUAUAUUGAUUAGUUUUGGAGUACUCGUGGUCG
In short: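 Pooled colonies went to amplicon sequencing on an Illumina HiSeq 2500 after six replicate transformations. The plates were LB agar with 100 μg/mL carbenicillin, 50 μM IPTG and 0.2% rhamnose, with or without 25 μg/mL kanamycin, incubated overnight at 37°C or 30°C. The E. coli BL21(DE3) library had all eight P1ex-region intron nucleotides randomised, the intron placed in the knt kanamycin-resistance gene on pET-22b(+). DiMSum fitness is the error-weighted combination of replicate fold changes, kanamycin against none, normalised to wild type.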

Sequence	self-splicing fitness (ln) (30 °C)	self-splicing fitness (ln) (37 °C)
GAGGAGCAAUAUUACGUCCG	-2.52 ± 0.24	-2.24 ± 0.31
GAGGAGCAAUAUUACGUGGA	-3.86 ± 0.32	-2.98 ± 0.29
GAGGAGCAAUAUUACGUUAG	-4 ± 0.27	-1.93 ± 0.27
GAGGAGCAAUAUUACGUUUA	-1.89 ± 0.26	-1.84 ± 0.32
GAGUAGCAAUAUUACGAACA		-1.28 ± 0.34
GAGUAGCAAUAUUACGAGAG	-3.63 ± 0.24	-3.64 ± 0.27
GAGUAGCAAUAUUACGAUCG	-1.06 ± 0.11	-0.986 ± 0.12
GAGUAGCAAUAUUACGAUGC	-1.79 ± 0.23	-0.495 ± 0.26
GAGUAGCAAUAUUACGCAAC	-3.77 ± 0.37	-2.66 ± 0.36
GAGUAGCAAUAUUACGCAGC		-2.81 ± 0.34
GAGUAGCAAUAUUACGCGCU		-0.5 ± 0.39
GAGUAGCAAUAUUACGCGUC	-1.36 ± 0.21	-1.26 ± 0.22
GAGUAGCAAUAUUACGCUUU	-3.16 ± 0.32	-1.39 ± 0.23
GAGUAGCAAUAUUACGGAAC	-3.8 ± 0.34	-1.79 ± 0.22
GAGUAGCAAUAUUACGGACC	-1.29 ± 0.21	-0.248 ± 0.22
GAGUAGCAAUAUUACGGCUU	-2.2 ± 0.12	-1.78 ± 0.15
GAGUAGCAAUAUUACGGGCC	-2.52 ± 0.15	-1.32 ± 0.13
GAGUAGCAAUAUUACGGUAU	-2.6 ± 0.13	-2.22 ± 0.2
GAGUAGCAAUAUUACGUACA	-0.962 ± 0.2	-0.303 ± 0.18
GAGUAGCAAUAUUACGUCAA	-2.1 ± 0.19	-1.8 ± 0.23
GAGUAGCAAUAUUACGUUUU	-2.6 ± 0.22	-2.12 ± 0.24
GAUAAGCAAUAUUACGAAGU	-2.4 ± 0.18	-1.15 ± 0.23
GAUAAGCAAUAUUACGAAUA	-2.53 ± 0.22	-1.58 ± 0.3
GAUAAGCAAUAUUACGACGC	0.303 ± 0.055	-0.0161 ± 0.063
GAUAAGCAAUAUUACGAGGG	-4.01 ± 0.39	-2.19 ± 0.24

Sequence	self-splicing fitness (ln) (30 °C)	self-splicing fitness (ln) (37 °C)
GAUAAGCAAUAUUACGAUAG	-1.66 ± 0.15	-1.95 ± 0.2
GAUAAGCAAUAUUACGAUGG	-3.06 ± 0.31	-0.54 ± 0.21
GAUAAGCAAUAUUACGCACA	-0.364 ± 0.14	0.39 ± 0.18
GAUAAGCAAUAUUACGCGAA	-2.31 ± 0.093	-1.65 ± 0.11
GAUAAGCAAUAUUACGCGAU		-2.82 ± 0.26
GAUAAGCAAUAUUACGCGGA	-3.54 ± 0.22	-0.761 ± 0.12
GAUAAGCAAUAUUACGCUAA	-2.41 ± 0.24	-2.28 ± 0.32
GAUAAGCAAUAUUACGCUCG	-0.655 ± 0.15	0.0364 ± 0.17
GAUAAGCAAUAUUACGGAGA	-3.48 ± 0.36	-2.78 ± 0.24
GAUAAGCAAUAUUACGGCGG	-2.27 ± 0.12	-1.32 ± 0.13
GAUAAGCAAUAUUACGGCUG	-0.569 ± 0.067	0.0614 ± 0.1
GAUAAGCAAUAUUACGGUGG	-2.85 ± 0.23	-2.24 ± 0.2
GAUAAGCAAUAUUACGGUUU	-1.22 ± 0.056	-0.908 ± 0.069
GAUAAGCAAUAUUACGUCAC		-1.86 ± 0.27
GAUAAGCAAUAUUACGUUUG	-2.07 ± 0.17	-1.92 ± 0.17
GAUCAGCAAUAUUACGAACA	0.0135 ± 0.15	0.0485 ± 0.15
GAUCAGCAAUAUUACGACAA	-0.267 ± 0.081	-0.396 ± 0.089
GAUCAGCAAUAUUACGACUG	-1.21 ± 0.082	-0.166 ± 0.13
GAUCAGCAAUAUUACGAGUA	-1.2 ± 0.12	-0.817 ± 0.092
GAUCAGCAAUAUUACGAUAU	-0.637 ± 0.08	0.658 ± 0.11
GAUCAGCAAUAUUACGAUUA	-0.622 ± 0.086	0.0655 ± 0.1
GAUCAGCAAUAUUACGCAGC	-1.64 ± 0.11	-0.448 ± 0.13
GAUCAGCAAUAUUACGCUAA	-1.11 ± 0.12	-0.316 ± 0.15
GAUCAGCAAUAUUACGCUCU	-1.3 ± 0.12	-0.735 ± 0.15
GAUCAGCAAUAUUACGGCCG	-0.635 ± 0.13	-0.245 ± 0.14

Sequence	self-splicing fitness (ln) (30 °C)	self-splicing fitness (ln) (37 °C)
GAUCAGCAAUAUUACGUAAU	-0.0684 ± 0.098	-0.341 ± 0.13
GAUCAGCAAUAUUACGUAGU	-0.663 ± 0.1	-0.885 ± 0.1
GAUCAGCAAUAUUACGUCAU	-1.53 ± 0.094	-0.393 ± 0.1
GAUCAGCAAUAUUACGUCGA	-1.35 ± 0.084	-0.202 ± 0.096
GAUCAGCAAUAUUACGUGCA	-0.293 ± 0.072	-0.489 ± 0.085
GAUCAGCAAUAUUACGUGGC	-2.95 ± 0.21	-0.582 ± 0.15
GAUCAGCAAUAUUACGUUCC		-2.85 ± 0.4
GAUCAGCAAUAUUACGUUCU	-2.42 ± 0.1	-1.46 ± 0.12
GAUGAGCAAUAUUACGAGGG		-2.15 ± 0.22
GAUGAGCAAUAUUACGAUCA	-2.17 ± 0.24	-1.31 ± 0.21
GAUGAGCAAUAUUACGAUCG	-1.9 ± 0.35	-2.32 ± 0.24
GAUGAGCAAUAUUACGAUUA	-2.57 ± 0.21	-1.4 ± 0.18
GAUGAGCAAUAUUACGCAAU	-4.35 ± 0.34	-2.46 ± 0.19
GAUGAGCAAUAUUACGCACU	-2.71 ± 0.22	-1.04 ± 0.2
GAUGAGCAAUAUUACGCAGG		-2.24 ± 0.43
GAUGAGCAAUAUUACGCCCG	-3 ± 0.36	-2.08 ± 0.43
GAUGAGCAAUAUUACGCCUA	-1.7 ± 0.29	-0.51 ± 0.26
GAUGAGCAAUAUUACGCCUG	-1.57 ± 0.26	-2.53 ± 0.41
GAUGAGCAAUAUUACGCGUG	-0.71 ± 0.14	-1.14 ± 0.16
GAUGAGCAAUAUUACGCUGU	-3.68 ± 0.26	-2.35 ± 0.26
GAUGAGCAAUAUUACGGAUG	-2.78 ± 0.19	-2.89 ± 0.26
GAUGAGCAAUAUUACGGCAA	-0.812 ± 0.26	-2.35 ± 0.37
GAUGAGCAAUAUUACGGCAC	-0.478 ± 0.098	-0.366 ± 0.16
GAUGAGCAAUAUUACGGGCA	-1.87 ± 0.2	-1.88 ± 0.28
GAUGAGCAAUAUUACGGGUG	-2.68 ± 0.2	-3.32 ± 0.28

Sequence	self-splicing fitness (ln) (30 °C)	self-splicing fitness (ln) (37 °C)
GAUGAGCAAUAUUACGGUCC	-3.29 ± 0.2	-2.27 ± 0.36
GAUGAGCAAUAUUACGUAAG	-3.37 ± 0.24	-2.11 ± 0.2
GAUGAGCAAUAUUACGUAGA	-3.51 ± 0.24	-1.88 ± 0.2
GAUGAGCAAUAUUACGUCGC	-4.14 ± 0.29	-2.7 ± 0.26
GAUGAGCAAUAUUACGUGGC	-3.24 ± 0.22	-2.59 ± 0.26
GAUGAGCAAUAUUACGUUAG	-3.42 ± 0.24	-1.81 ± 0.23
GAUGAGCAAUAUUACGUUAU	-3.98 ± 0.23	-1.77 ± 0.16
GAUGAGCAAUAUUACGUUGG	-3.65 ± 0.3	-2.2 ± 0.32
GAUGAGCAAUAUUACGUUUA	-3.13 ± 0.29	-2.75 ± 0.23
GAUGAGCAAUAUUACGUUUG	-3.24 ± 0.21	-2.77 ± 0.26
GAUUAGCAAUAUUACGACGA	-1.23 ± 0.3	-0.273 ± 0.2
GAUUAGCAAUAUUACGAGAU	-3.12 ± 0.14	-3.26 ± 0.19
GAUUAGCAAUAUUACGCAUA	-2.08 ± 0.17	-0.967 ± 0.14
GAUUAGCAAUAUUACGCCGA	-1.03 ± 0.42	
GAUUAGCAAUAUUACGGAAA	-2.25 ± 0.29	-2.19 ± 0.22
GAUUAGCAAUAUUACGGCCA	-1.41 ± 0.19	0.41 ± 0.21
GAUUAGCAAUAUUACGGGUA	-1.98 ± 0.13	-1.04 ± 0.12
GAUUAGCAAUAUUACGUAGA	-1.92 ± 0.15	-0.933 ± 0.14
GCAAAGCAAUAUUACGAAGC	-1.83 ± 0.25	-2.28 ± 0.34
GCAAAGCAAUAUUACGACAG	-3.2 ± 0.18	-2.68 ± 0.23
GCAAAGCAAUAUUACGAGAC		-2.63 ± 0.43
GCAAAGCAAUAUUACGAUCG	-1.52 ± 0.067	-0.0765 ± 0.091
GCAAAGCAAUAUUACGAUUA	-0.0977 ± 0.11	-1.13 ± 0.13
